{
  "source": "patent US20160187355A1",
  "about": "(AUGUSTA UNIVERSITY RESEARCH INSTITUTE, published 2016)",
  "molecules": {"B1": {"name": "AP alone (enzyme, human, UniProt P05187 23-511, looked up)", "chain": "IIPVEEENPDFWNREAAEALGAAKKLQPAQTAAKNLIIFLGDGMGVSTVTAARILKGQKKDKLGPEIPLAMDRFPYVALSKTYNVDKHVPDSGATATAYLCGVKGNFQTIGLSAAARFNQCNTTRGNEVISVMNRAKKAGKSVGVVTTTRVQHASPAGTYAHTVNRNWYSDADVPASARQEGCQDIATQLISNMDIDVILGGGRKYMFRMGTPDPEYPDDYSQGGTRLDGKNLVQEWLAKRQGARYVWNRTELMQASLDPSVTHLMGLFEPGDMKYEIHRDSTLDPSLMEMTEAALRLLSRNPRGFFLFVEGGRIDHGHHESRAYRALTETIMFDDAIERAGQLTSEEDTLSLVTADHSHVFSFGGYPLRGSSIFGLAPGKARDRKAYTVLLYGNGPGYVLKDGARPDVTESESGSPEYRQQSAVPLDEETHAGEDVAVFARGPQAHLVHGVQEQTFIAHVMAFAACLEPYTACDLAPPAGTTDAAHPG", "notes": "Control protein; also called control (empty pAPtag-5)"}},
  "key": {"LRP4N-Myc (rat) [1]": {"target": "LRP4N-Myc (rat) (UniProt Q9QYP1)", "sequence (Q9QYP1 21-1723)": "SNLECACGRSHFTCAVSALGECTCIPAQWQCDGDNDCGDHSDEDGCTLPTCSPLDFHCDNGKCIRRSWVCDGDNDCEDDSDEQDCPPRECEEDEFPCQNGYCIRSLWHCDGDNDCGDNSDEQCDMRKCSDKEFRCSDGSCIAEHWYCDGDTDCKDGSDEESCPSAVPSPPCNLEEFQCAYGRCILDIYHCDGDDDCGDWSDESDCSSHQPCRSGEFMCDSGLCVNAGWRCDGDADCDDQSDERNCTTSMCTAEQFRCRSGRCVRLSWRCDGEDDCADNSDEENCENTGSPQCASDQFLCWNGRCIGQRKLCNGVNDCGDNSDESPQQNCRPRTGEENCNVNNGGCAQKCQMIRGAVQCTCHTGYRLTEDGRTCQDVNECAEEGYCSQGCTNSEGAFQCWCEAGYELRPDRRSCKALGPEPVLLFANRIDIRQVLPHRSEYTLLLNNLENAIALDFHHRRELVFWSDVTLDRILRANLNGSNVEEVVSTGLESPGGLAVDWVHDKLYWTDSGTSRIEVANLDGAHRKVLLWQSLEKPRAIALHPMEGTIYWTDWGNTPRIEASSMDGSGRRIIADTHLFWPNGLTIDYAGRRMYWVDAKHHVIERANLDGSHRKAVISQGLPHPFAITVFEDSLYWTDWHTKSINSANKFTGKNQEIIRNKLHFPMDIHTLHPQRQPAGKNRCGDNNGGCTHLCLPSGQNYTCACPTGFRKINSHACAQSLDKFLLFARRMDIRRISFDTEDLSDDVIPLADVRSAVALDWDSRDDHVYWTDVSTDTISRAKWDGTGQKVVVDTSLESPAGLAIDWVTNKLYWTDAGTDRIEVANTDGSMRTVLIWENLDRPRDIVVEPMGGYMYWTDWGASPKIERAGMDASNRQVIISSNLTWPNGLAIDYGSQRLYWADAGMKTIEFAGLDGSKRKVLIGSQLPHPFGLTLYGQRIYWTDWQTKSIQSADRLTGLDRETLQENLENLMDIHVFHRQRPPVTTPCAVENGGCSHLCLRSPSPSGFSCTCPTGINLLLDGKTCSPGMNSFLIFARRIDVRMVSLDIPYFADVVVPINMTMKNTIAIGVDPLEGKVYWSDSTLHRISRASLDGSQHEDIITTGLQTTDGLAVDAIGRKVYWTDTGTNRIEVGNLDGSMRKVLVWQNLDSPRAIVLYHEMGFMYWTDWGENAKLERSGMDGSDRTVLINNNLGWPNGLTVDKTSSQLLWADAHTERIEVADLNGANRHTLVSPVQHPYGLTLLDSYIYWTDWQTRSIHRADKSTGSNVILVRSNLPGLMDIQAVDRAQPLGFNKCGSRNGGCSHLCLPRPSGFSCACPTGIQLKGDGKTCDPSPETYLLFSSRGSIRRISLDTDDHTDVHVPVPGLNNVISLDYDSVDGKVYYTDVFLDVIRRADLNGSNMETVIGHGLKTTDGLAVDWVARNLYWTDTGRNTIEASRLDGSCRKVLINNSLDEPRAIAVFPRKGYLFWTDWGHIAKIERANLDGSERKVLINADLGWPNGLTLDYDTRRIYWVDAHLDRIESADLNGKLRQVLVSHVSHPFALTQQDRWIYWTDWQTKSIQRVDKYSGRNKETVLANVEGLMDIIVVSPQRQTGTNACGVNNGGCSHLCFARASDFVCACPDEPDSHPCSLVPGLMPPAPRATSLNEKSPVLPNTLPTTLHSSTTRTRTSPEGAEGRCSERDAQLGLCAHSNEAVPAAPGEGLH", "test": "solid phase binding of nAgrin-AP to coated LRP4, Scatchard plot"}, "LRP4N-Myc (rat) [2]": {"target": "LRP4N-Myc (rat) (UniProt Q9QYP1)", "test": "solid phase binding: purified LRP4 (legend: LRP4-Myc; paragraph 111: LRP4N-Myc) coated on plate, bound AP activity with pNPP"}, "LRP4N-Myc (rat) [3]": {"target": "LRP4N-Myc (rat) (UniProt Q9QYP1)", "test": "solid phase binding of MuSK-AP to coated LRP4, Scatchard plot"}, "LRP4-Myc": {"target": "T1, LRP4-Myc (UniProt Q9QYP1 21-1905)", "T1 construct": "whole, on cells; also called Myc-tagged full length LRP4; not shown: Myc tag of pcDNA3.1-MycHis; His tag of pcDNA3.1-MycHis", "T1 sequence (Q9QYP1 21-1905)": "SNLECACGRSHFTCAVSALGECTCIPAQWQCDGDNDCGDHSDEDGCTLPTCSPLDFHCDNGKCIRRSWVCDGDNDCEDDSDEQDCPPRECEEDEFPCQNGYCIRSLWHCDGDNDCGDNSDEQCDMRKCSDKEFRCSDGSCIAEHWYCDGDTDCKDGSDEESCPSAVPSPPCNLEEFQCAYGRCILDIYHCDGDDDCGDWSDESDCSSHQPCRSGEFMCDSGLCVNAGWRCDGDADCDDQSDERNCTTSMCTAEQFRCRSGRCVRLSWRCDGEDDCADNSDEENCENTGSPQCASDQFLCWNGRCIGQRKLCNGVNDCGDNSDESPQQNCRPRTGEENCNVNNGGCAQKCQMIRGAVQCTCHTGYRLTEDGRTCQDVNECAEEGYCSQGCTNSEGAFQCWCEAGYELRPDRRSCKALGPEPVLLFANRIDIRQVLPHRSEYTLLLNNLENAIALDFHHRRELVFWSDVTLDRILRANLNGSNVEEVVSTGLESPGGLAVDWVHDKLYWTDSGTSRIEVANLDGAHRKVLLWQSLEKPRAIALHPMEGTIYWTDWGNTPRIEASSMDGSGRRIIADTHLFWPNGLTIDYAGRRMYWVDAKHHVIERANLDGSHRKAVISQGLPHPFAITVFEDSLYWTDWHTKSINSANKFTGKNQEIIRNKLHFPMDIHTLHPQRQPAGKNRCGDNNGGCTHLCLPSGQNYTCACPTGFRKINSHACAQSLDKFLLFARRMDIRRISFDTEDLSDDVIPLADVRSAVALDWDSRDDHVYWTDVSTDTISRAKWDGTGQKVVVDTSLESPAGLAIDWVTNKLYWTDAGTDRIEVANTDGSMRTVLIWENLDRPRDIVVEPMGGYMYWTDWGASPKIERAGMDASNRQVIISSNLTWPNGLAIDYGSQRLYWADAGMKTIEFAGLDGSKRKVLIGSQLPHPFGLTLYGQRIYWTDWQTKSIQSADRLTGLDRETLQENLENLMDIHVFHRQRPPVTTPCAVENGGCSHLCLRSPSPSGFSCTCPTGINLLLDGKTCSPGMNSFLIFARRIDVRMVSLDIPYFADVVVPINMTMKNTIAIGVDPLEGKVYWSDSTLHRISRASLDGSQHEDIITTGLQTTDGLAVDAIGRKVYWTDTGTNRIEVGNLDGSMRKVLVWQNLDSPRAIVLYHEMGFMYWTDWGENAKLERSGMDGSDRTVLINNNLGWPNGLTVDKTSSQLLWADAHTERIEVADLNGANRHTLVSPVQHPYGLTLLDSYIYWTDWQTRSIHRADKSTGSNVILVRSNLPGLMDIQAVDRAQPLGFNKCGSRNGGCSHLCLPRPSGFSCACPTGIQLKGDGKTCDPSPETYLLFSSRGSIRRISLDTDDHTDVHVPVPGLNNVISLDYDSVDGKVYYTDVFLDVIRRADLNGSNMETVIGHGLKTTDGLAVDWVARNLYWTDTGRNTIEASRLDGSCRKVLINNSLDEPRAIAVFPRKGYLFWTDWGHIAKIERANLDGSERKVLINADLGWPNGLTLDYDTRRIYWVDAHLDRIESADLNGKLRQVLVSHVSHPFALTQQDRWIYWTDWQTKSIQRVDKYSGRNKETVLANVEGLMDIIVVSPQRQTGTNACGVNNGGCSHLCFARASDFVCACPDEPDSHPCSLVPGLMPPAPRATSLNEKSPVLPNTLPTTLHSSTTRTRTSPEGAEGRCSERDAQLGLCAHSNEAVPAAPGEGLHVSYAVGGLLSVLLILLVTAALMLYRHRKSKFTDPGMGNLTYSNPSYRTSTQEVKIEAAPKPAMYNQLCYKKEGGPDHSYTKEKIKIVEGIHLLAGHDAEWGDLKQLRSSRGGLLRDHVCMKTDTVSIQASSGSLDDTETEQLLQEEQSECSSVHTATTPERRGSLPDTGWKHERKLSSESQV", "test": "solid phase binding: purified LRP4-Myc (name as in the legend) coated on plate, bound AP activity with pNPP", "protocol": "FIG. 6A-G. Direct interaction between LRP4 and MuSK. […] Flag-MuSKect immobilized on beads were incubated with condition media of cells expressing the extracellular domains of LRP4 (LRP4N-Myc) or the empty vector (control) in the presence or absence of neuronal agrin. Precipitated LRP4 was analyzed by immunoblot with anti-Myc antibody. […] FIG. 6B is a quantitative analysis of LRP4N-Myc and Flag-MuSK. Data shown were mean±SEM, n=3; *, p <0.05 in comparison with the no-agrin group. […] Purified LRP4-Myc was coated on Maxi-Sorp Immuno Plates, which were incubated with MuSK-AP. Bound AP was measured with pNPP as substrate. Data shown were mean±SEM. n=4. FIG. 6D is a Scatchard plot of data in FIG. 6C. Y axis represents the ratio of bound to free MuSK-AP whereas X axis represents the concentration of bound MuSK-AP. […] Experiments were done as in FIG. 6A except condition medium of cells expressing the extracellular domain of LRP6 was used. […] HEK293 cells were transfected with LRP4 and/or Flag-MuSK. Lysates were incubated with anti-Flag antibody, and resulting immunocomplex was analyzed for LRP4 and Flag. Lysates were also probed to indicate equal amounts of indicated proteins. […]\nSolid phase binding assay. […] Coated wells were incubated with purified AP fusion proteins and the AP activity was measured using pNPP as substrate."}, "[4]": {"target": "T2, full length LRP4 (pcDNA-LRP4) (UniProt Q9QYP1 21-1905, limits assumed)", "T2 construct": "whole, on cells; Expressed in transfected C2C12 myoblasts or HEK293 cells; also called exogenous LRP4", "T2 sequence (Q9QYP1 21-1905 limits assumed)": "as the sequence (Q9QYP1 21-1905) above", "test": "intact cell binding on transfected C2C12 myoblasts, BCIP/NBT staining quantified", "protocol": "FIG. 4A-G. Expression of LRP4 enables binding activity for neuronal agrin and MuSK signaling. […] C2C12 myoblasts were transfected by empty vector (control), LRP4 and/or Flag-MuSK. 36 hr after transfection, myoblasts were incubated with AP alone, mAgrin-AP or nAgrin-AP for 90 min at room temperature. Endogenous AP was inactivated by heating and bound AP was visualized in cells by staining with BCIP/NBT. FIG. 4B is a quantification of data in FIG. 4A. Data shown were mean±SEM. n=6; *, P<0.05 in comparison with mAgrin-AP of the same group or nAgrin-AP in the control group. FIG. 4C and FIG. 4D show nAgrin-AP bound to HEK293 cells expressing LRP4, but not those expressing LRP5. HEK293 cells were transfected without (control) or with LRP4-Myc (FIG. 4C) or LRP5-Myc (FIG. 4D). 36 hr after transfection, transfected cells were incubated with nAgrin-AP or mAgrin-AP. In some experiments, control cells were incubated with nAgrin-AP. After heat inactivation of endogenous AP, lysates were assayed for transfected AP using pNPP as substrate. […] In FIG. 4E, lysates were incubated with anti-Flag antibody, and resulting immunocomplex was analyzed with anti-phosphotyrosine antibody 4G10. […] FIG. 4G is a quantitative analysis of data in FIG. 4E and FIG. 4F. MuSK and Abl phosphorylation was quantified by using the ImageJ software. […]"}},
  "data": [
    {"molecule": "nAgrin-AP (from UniProt P25304 1145-1940) (ligand)", "values": [
      {"measurement": "Kd", "setting": "LRP4N-Myc (rat) [1]", "value": 0.5, "unit": "nM"},
      {"measurement": "EC50 (read off the curve)", "setting": "LRP4N-Myc (rat) [2]", "value": 0.4, "unit": "nM"}
    ]},
    {"molecule": "MuSK-AP (from UniProt P05187 23-511) (receptor)", "values": [
      {"measurement": "Kd", "setting": "LRP4N-Myc (rat) [3]", "value": 0.45, "unit": "nM"},
      {"measurement": "EC50 (read off the curve)", "setting": "LRP4-Myc", "value": 0.3, "unit": "nM"}
    ]},
    {"molecule": "B1", "values": [
      {"measurement": "binding result", "setting": "[4]", "value": "no binding (tested: 5 nM (not printed on the sheet))"},
      {"measurement": "binding result", "setting": "LRP4-Myc", "value": "no binding (tested: 1000 nM)"}
    ]}
  ]
}
